Source: patent publication US8008021B2, “N-terminal truncation of cardiac troponin subunits and their roles in cardiovascular disease” (Evanston Northwestern Healthcare, priority 2006, dated 2011)
One block for each molecule: values may come before it.

Legend:
[1] = biological target: T1, myofibril associated μ-calpain (Mus musculus, UniProt O35350); test: Calpain inhibition of cTnT-ND production in TRITON X-100 extracted ventricular muscle strips (Western blot densitometry); format: biochemical; settings: 100 μM hydrogen peroxide
T1 construct: To test whether endogenous calpain in the cardiac muscle contributes to TnT NH2-terminal modification; from tissue
T1 sequence (O35350 1-713): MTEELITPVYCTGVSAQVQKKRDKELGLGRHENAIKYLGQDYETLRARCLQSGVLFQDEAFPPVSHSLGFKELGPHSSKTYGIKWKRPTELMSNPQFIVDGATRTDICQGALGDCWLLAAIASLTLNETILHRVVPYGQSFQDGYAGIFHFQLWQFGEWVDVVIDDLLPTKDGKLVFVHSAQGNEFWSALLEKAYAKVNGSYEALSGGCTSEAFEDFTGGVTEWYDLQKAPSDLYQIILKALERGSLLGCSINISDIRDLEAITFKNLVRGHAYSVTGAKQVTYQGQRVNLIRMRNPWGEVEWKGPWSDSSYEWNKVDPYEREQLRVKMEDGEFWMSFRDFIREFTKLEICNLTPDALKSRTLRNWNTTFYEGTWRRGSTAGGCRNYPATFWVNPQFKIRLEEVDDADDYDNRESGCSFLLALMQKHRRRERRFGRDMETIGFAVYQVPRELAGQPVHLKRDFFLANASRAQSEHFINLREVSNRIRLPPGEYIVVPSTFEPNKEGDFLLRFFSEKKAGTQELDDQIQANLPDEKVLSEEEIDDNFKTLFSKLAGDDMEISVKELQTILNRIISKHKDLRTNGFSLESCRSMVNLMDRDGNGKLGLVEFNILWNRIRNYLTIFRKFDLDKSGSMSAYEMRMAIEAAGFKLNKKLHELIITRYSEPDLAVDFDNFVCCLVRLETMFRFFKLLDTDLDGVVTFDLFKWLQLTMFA
T1 sequence (O88456 1-268 partner): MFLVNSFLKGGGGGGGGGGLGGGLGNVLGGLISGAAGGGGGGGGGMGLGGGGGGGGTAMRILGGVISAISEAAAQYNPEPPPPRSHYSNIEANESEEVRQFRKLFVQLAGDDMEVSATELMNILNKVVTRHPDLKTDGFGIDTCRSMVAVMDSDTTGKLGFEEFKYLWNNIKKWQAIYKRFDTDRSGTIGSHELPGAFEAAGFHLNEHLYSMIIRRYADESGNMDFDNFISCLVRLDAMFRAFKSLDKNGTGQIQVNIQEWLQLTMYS
Protocol: (§1) SDS-PAGE and Western blotting. Ventricular muscle tissues or myocytes were homogenized in Laemmli SDS-PAGE sample buffer containing 2% SDS, heated at 80° C. for 5 min, and clarified by centrifugation. Total protein extracts were resolved by 14% Laemmli gel with an acrylamide:bisacrylamide ratio of 180:1 (low cross linker) or by 15% Laemmli gel with an acrylamide:bisacrylamide ratio of 29:1 (high cross linker). The gels were stained with Coomassie Brilliant Blue R250 to reveal the resolved protein bands. Duplicate gels were electrically blotted to nitrocellulose membranes, as described previously (21). After blocking in Tris-buffered saline (TBS) containing 1% bovine serum albumin (BSA), the membrane was incubated with anti-TnT mAbs CT3, 2C8, or polyclonal antibody RATnT. The membranes were then washed with high stringency using TBS containing 0.5% TRITON® X-100 and 0.05% SDS, incubated with alkaline phosphatase-conjugated anti-mouse IgG or anti-rabbit IgG second antibodies (Sigma), washed again, and developed in 5-bromo-4-chloro-3-indolylphosphate/nitro blue tetrazolium substrate solution, as described previously (21).
TRITON® X-100 extraction of ventricular muscle strips. In an ice container, ventricular muscle was cut with a sharp razor blade into fine pieces approximately the size of isolated trabeculae. The muscle strips were washed in relaxing solution containing […], 2 mM MgCl2, 2 mM EGTA, 10 mM Tris, 0.5 mM DTT, 0.1 mM PMSF and 2 mM Na4P2O7. After centrifugation at 2,800×g at 4° C. for 15 min, the pellet was skinned in relaxing solution plus 0.5% (w/w) TRITON® X-100 at 4° C. with rotation for 10 min. After centrifugation at 14,000×g at 4° C. for 20 min, the pellet was suspended in relaxing solution without TRITON® X-100 and incubated at 37° C. with rotation. Samples were collected at a series of time points for SDS-PAGE and Western blotting to examine the modifications of cTnT and other myofibrillar proteins.
Calpain inhibition. To test whether endogenous calpain in the cardiac muscle contributes to TnT NH2-terminal modification, several different calpain inhibitors were applied to the TRITON® X-100 extraction procedure. […] TRITON® X-100 treatment of mouse ventricular muscle strips was carried out as above in the presence or absence of 100 μM hydrogen peroxide and the effect on cTnT modification was examined by Western blotting.
The effects of two cell membrane-permissible nonpeptide calpain inhibitors, PD 150606 and PD 151746 (Calbiochem), were also tested. […] PD 150606 and […] were separately added to the relaxing solution before TRITON® X-100 treatment and incubated with the minced ventricular muscle at 4° C. for 10 minutes to allow the inhibitor to penetrate cell membrane and bind to calpain. After TRITON® X-100 extraction, samples were collected for SDS-PAGE and Western blotting to examine the effect on cTnT modification.

[2] = biological target: T2, rabbit α-tropomyosin (Oryctolagus cuniculus, UniProt P58772); test: ELISA solid phase protein binding of immobilized cTnT to tropomyosin; settings: for EC50: immobilized mouse cTnT, mean ± SD, read-out: concentration of tropomyosin for 50% maximum binding; for change in binding to tropomyosin on decrease of pH: pH from 7.0 to 6.2
T2 construct: Rabbit α-tropomyosin was purified from ventricular muscle as described previously (44); from tissue; host or cells: rabbit ventricular muscle
Protocol: (§2) Protein binding assays. Enzyme-linked immunosorbant assay (ELISA) solid phase protein binding experiments (21) were performed to investigate the interactions of the NH2-terminal truncated cTnT with TnI and tropomyosin. Purified intact and NH2-terminal truncated mouse cTnT or BSA control were dissolved at 5 μg/mL in Buffer A (0.1 M KCl, 3 mM MgCl2, 20 mM PIPES, pH 7.5) and coated onto 96-well microtiter plates by incubation at 4° C. overnight. After washes with Buffer T (Buffer A containing 0.05% polyoxyethylene 20 (TWEEN®20)) at pH 7.5 to remove the unbound protein, the plates were blocked with Buffer T at pH 7.0 or 6.2 containing 1% BSA. The immobilized cTnT was incubated with serial dilutions of bovine cardiac TnI or rabbit α-tropomyosin in Buffer T (at the blocking pH) containing 0.1% BSA at room temperature for 2 hours. After one wash with Buffer T of the blocking pH and two washes with Buffer T at pH 7.0, the bound TnI or tropomyosin was quantified via incubation at pH 7.0 and room temperature for 1 hour with the anti-TnI mAb TnI-1 (46) or an anti-tropomyosin mAb CH1 (47), respectively. The plates were then processed by a standard ELISA procedure, including pH 7.0 Buffer T washes, horse radish peroxidase-conjugated anti-mouse immunoglobulin second antibody (Sigma) incubation, and H2O2/2,2′-azinobis-(3-ethylbenzthiazolinesulfonic acid) substrate reaction (21). A405 nm of each assay well was recorded at a series of time points by an automated microtiter plate reader (BioRad Benchmark). The A405 nm values in the linear course of the color development were used to plot the protein binding affinity curves. All experiments were done in triplicate.

[3] = biological target: T3, bovine cardiac TnI (Bos taurus, UniProt P08057); test: ELISA solid phase protein binding of immobilized cTnT to TnI; settings: for EC50: immobilized mouse cTnT, mean ± SD, read-out: concentration of TnI required to reach 50% of maximum binding; for change in binding to TnI on decrease of pH: pH from 7.0 to 6.2
T3 construct: Bovine cardiac TnI was purified from ventricular muscle as described previously (19); from tissue; host or cells: bovine ventricular muscle
Protocol: as §2

[4] = tested on: cTnT in bovine cardiac myofibrils; test: μ-Calpain treatment of cardiac myofibrils (mAb CT3 Western blot densitometry); format: biochemical; settings: 20 U/ml μ-calpain
Protocol: as §1
Mu-Calpain treatment of cTnT. […] The samples were analyzed by SDS-PAGE and Western blotting as described above. […]

Molecule: OO [hydrogen peroxide]
cTnT-ND production reduced to ([1]; TRITON X-100 extracted exon 7-deleted transgenic mouse ventricular muscle strips): 65% | decrease in cTnT-ND72-291 ([1]; TRITON X-100 treated mouse ventricular muscle strips): approximately 35%

B1: μ-calpain: calcium activated cysteine protease (Calbiochem) used to treat cTnT, troponin complex and myofibrils (protein, UniProt P07384 2-714, looked up)
Calpain-1 catalytic subunit: SEEIITPVYCTGVSAQVQKQRARELGLGRHENAIKYLGQDYEQLRVRCLQSGTLFRDEAFPPVPQSLGYKDLGPNSSKTYGIKWKRPTELLSNPQFIVDGATRTDICQGALGDCWLLAAIASLTLNDTLLHRVVPHGQSFQNGYAGIFHFQLWQFGEWVDVVVDDLLPIKDGKLVFVHSAEGNEFWSALLEKAYAKVNGSYEALSGGSTSEGFEDFTGGVTEWYELRKAPSDLYQIILKALERGSLLGCSIDISSVLDMEAITFKKLVKGHAYSVTGAKQVNYRGQVVSLIRMRNPWGEVEWTGAWSDSSSEWNNVDPYERDQLRVKMEDGEFWMSFRDFMREFTRLEICNLTPDALKSRTIRKWNTTLYEGTWRRGSTAGGCRNYPATFWVNPQFKIRLDETDDPDDYGDRESGCSFVLALMQKHRRRERRFGRDMETIGFAVYEVPPELVGQPAVHLKRDFFLANASRARSEQFINLREVSTRFRLPPGEYVVVPSTFEPNKEGDFVLRFFSEKSAGTVELDDQIQANLPDEQVLSEEEIDENFKALFRQLAGEDMEISVKELRTILNRIISKHKDLRTKGFSLESCRSMVNLMDRDGNGKLGLVEFNILWNRIRNYLSIFRKFDLDKSGSMSAYEMRMAIESAGFKLNKKLYELIITRYSEPDLAVDFDNFVCCLVRLETMFRFFKTLDTDLDGVVTFDLFKWLQLTMFA
NH2-terminal truncated cTnT (cTnT ND) as share of total cTnT (truncated plus intact) ([4]; 0% at 0 U/ml): 98% | intact cTnT remaining ([4]; 100% at 0 U/ml): 1.5%

Further lines, results first:

level of maximum binding to tropomyosin, compared with intact cTnT ([2]; FIG. 12B insert): not significantly changed | EC50 [2]: 9.73 ± 0.185 nM | change in binding to tropomyosin on decrease of pH [2]: did not result in significant change | maximum binding to TnI, compared with intact cTnT ([3]; FIG. 12A insert): No significant difference | EC50 [3]: 8.73 ± 1.15 nM | change in binding to TnI on decrease of pH [3]: did not result in significant change
Molecule: cTnT ND: NH2-terminal truncated mouse cardiac troponin T lacking amino acids 1-71, expressed in E. coli

EC50 [2]: 13.5 ± 1.38 nM | change in binding to tropomyosin on decrease of pH [2]: did not result in significant change | EC50 [3]: 15.3 ± 1.36 nM | change in binding to TnI on decrease of pH [3]: did not result in significant change
Molecule: intact cTnT: intact mouse cardiac troponin T (TnT4) expressed in E. coli
